Measured values reported in US20190225680A1 (NASCIENT, published 2019).

T1: human TNC rCd4-His-FBG (rat; human)
T1 sequence: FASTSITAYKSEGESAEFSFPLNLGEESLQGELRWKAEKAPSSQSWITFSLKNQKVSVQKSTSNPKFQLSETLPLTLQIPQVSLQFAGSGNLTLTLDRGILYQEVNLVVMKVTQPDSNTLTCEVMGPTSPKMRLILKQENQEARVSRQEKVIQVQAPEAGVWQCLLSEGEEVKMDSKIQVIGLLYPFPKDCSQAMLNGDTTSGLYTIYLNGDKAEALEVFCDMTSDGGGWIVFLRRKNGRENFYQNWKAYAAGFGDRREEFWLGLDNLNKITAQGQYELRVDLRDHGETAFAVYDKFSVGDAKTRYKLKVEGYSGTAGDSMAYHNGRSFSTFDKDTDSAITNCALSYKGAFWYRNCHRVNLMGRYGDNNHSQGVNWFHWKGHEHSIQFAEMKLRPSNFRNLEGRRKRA

T2: mouse TNC rCd4-His-FBG (rat; mouse, UniProt P05540 207-386)
T2 construct: domain: domains 3 and 4; also called Mu TNC; mouse TNC FBG
T2 sequence: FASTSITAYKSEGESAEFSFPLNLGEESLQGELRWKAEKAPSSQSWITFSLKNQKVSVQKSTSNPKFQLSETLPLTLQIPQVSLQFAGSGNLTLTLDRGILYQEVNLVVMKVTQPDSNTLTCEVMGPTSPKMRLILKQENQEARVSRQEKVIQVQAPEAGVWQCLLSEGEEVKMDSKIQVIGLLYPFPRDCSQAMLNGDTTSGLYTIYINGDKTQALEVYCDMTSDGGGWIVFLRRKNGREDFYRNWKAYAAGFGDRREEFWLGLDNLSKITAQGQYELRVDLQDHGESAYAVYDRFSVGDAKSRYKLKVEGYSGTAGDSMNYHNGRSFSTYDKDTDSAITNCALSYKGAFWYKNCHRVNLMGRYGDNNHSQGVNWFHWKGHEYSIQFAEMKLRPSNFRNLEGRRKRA

T3: human TNC rCd4-His-FBG (rat; human, UniProt P05540 207-386)
T3 construct: domain: domains 3 and 4; Biotinylated in the ELISA and HTRF assays; also called Hu TNC; human TNC FBG
T3 sequence: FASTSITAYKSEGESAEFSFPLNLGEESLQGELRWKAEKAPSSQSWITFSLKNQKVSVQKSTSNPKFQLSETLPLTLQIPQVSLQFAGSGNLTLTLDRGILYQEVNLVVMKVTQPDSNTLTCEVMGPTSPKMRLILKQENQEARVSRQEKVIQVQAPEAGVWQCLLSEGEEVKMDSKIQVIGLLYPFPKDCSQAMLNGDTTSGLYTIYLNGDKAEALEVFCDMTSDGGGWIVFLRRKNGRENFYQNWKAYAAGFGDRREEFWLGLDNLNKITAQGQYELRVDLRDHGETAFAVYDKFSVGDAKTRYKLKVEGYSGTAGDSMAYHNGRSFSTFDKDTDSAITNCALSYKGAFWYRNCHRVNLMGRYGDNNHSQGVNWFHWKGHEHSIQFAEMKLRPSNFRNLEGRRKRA


Key:
[1] = biological target: T1, human TNC rCd4-His-FBG (rat; human); experiment: HTRF competition, scFv supernatant, competitor d2-labelled B12 IgG, biotinylated human rCd4-His-FBG
[2] = biological target: T2, mouse TNC rCd4-His-FBG; experiment: anti-FLAG capture DELFIA ELISA, scFv supernatant, biotinylated mouse rCd4-His-FBG
Experimental: E. coli clones harbouring scFv pSANG10 expression plasmids were induced in 96-well plates with auto-induction media as described previously (Schofield et al, 2007). E. coli supernatants were harvested for ELISA assays. ELISA used the DELFIA (dissociation enhanced lanthanide fluorescent immunoassay) system with Europium-labelled anti-FLAG antibody (Sigma, Aldrich, UK). Black immunosorb plates (Nunc) were coated overnight with anti-FLAG M2 antibody (Sigma, F3165, 5 μg/ml in PBS, 50 μl per well), in wells blocked by the addition of 2% milk powder, PBS (PBS-M, 300 μl per well). Plates were washed three times with PBS-T (PBS, 0.1% Tween-20) and three times with PBS followed by the addition of a 1:2 dilution of 96-well auto-induction culture supernatants containing expressed scFv in PBS-M (50 μl per well). The plates were incubated for 1 h, washed as above and biotinylated mouse or human rCd4-His-FBG (5 μg/ml in PBS-M, 50 μl) added to each well. Plates were incubated for a further 1 h, washed and Strepravidin-Eu added (Perkin Elmer, 1 μg/ml, PBS-M, 50 μl), incubated for 30 min, washed and DELFIA enhancement solution added (50 μl) and plates read on a Perkin Elmer Fusion plate reader (excitation=320 nm, emission 620 nm). The format of the assay is shown in.

[3] = biological target: T3, human TNC rCd4-His-FBG; experiment: HTRF competition, scFv supernatant, competitor d2-labelled B12 IgG, biotinylated human rCd4-His-FBG
Experimental: An HTRF-based competition assay was developed to screen for antibody variants with improved binding to human TNC FBG.
All samples and reagents were prepared in assay buffer (50 mM NaPO₄, 0.1% BSA, 0.4 M KF, pH 7.0) at 4× the stated concentration. 5 μl of each reagent was subsequently added to low volume 384-well assay plates (Greiner, 784075) to give a final reaction volume of 20 μl. IgG antibodies were labelled using the d2 labelling kit (CisBio, 62D2DPEA) as directed by the manufacturer. Streptavidin europium cryptate (CisBio, 610SAKLA, Lot#25C) was used at a final concentration of 1.8 ng active moiety (SA) per 20 μl reaction as recommended by the manufacturer. Biotinylated rCd4-His-FBG was prepared using EZ-link Sulfo-NHS-LC-Biotin reagent (Thermo Scientific, 21327) the extent of biotinylation was quantified using biotinylation fluorescence quantitation kit (Thermo Scientific, 46610). Where appropriate, supernatants containing scFv (prepared as described above for ELISA assays) were added to the 384-well assay plate at a final dilution of 1/20 (i.e. 1/5 dilution in assay buffer followed by addition of 5 μl diluted sample to the 20 μl FRET assay). […] Unless otherwise stated, biotinylated rCd4-His-FBG (biotin:protein ratio=1.8:1) was present at either 2.2 nM (in assays using the 2A5 IgG antibody) or 1 nM (in experiments using B12 IgG). Samples were incubated for approximately 1 h at room temperature and the FRET signal was determined using a BMG Pherastar instrument: excitation=320 nm; emission=620 nm and 665 nm; integration start time=60 μs; integration time=500 μs; 100 flashes per well. For competition assays containing culture supernatant, biotinylated rCd4-His-FBG antigen was pre-incubated with streptavidin europium cryptate for 45 min prior to addition of reagents to the assay plate. All FRET signals are presented as ΔR, where R=(E665/E620×104) and ΔR=(Rsample−Rbackground fluorescence).
Culture supernatants containing unlabelled scFv clones from affinity selected mutant libraries were tested for inhibition of the interaction between FBG and the fluorophore-labelled parental IgG antibody.

Row | % inhibition by parent scFv [1] [%] | fold improvement for mouse FBG binding (against the parent B12) [2] [fold] | % inhibition of HTRF signal [3] [%] | Binder
1 | 19 |  |  | 2A5 scFv (scFv, V domains shown, not shown: small tags and cut ends) VH: EVRLVQSGAEVKKPGASVKVSCKVSGYTLTELSMHWVRQAPGKGLEWMGGFDPEDGETIYAQKFQGRVTMTEDTSTDTAYMELSSLRSEDTAVYYCATAQKETYALTYWGQGTLVTVSS VL: DIQMTQSPASLPTSVGDRVTITCRASQYIQGFLNWYQQKPGKAPRLLIYAASTLQDGVPSRFSGSGYGTDFTLTISSLQPEDFATYYCQQSYSTPWTFGQGTKVEIK
2 |  | ≥ 4 | 91 | 165_13_D1 scFv (scFv, V domains shown, VH CDR3 GTRGEGDTFDI; not shown: scFv linker, domain order, and the tags of the pSANG10 vector (FLAG and others)) VH: QVQLVESGGGLVQPGRSLRLSCAASGFTFDDYAMHWVRQAPGKGLEWVSGISGSGGSTYYADSVKGRFTISRDNAKNSLYLQMNSLRAEDTALYYCAKGTRGEGDTFDIWGQGTMVTVSS VL: DIQMTQSPASLPTPVGDRVTITCRASQYIQGFLNWYQQKPGKAPKLLIYDASNLETGVPSRFSGSGSGTDFTLTISSLQPEDFATYYCQQSYSTPQTFGQGTKVDIK
3 |  | ≥ 4 | 91 | 165_13_E1 scFv (scFv, V domains shown, not shown: small tags and cut ends, VH CDR3 DISAVMDVPQT; 48 is used) VH: QVQLVESGGGLVQPGRSLRLSCAASGFTFDDYAMHWVRQAPGKGLEWVSGISGSGGSTYYADSVKGRFTISRDNAKNSLYLQMNSLRAEDTALYYCAKDISAVMDVPQTWGQGTMVTVSS VL: DIQMTQSPASLPTPVGDRVTITCRASQYIQGFLNWYQQKPGKAPKLLIYDASNLETGVPSRFSGSGSGTDFTLTISSLQPEDFATYYCQQSYSTPQTFGQGTKVDIK
4 |  | ≥ 4 | 91 | 165_13_A4 scFv (scFv, V domains shown, VH CDR3 DKYPVLDTFDI; not shown: scFv linker, domain order, and the tags of the pSANG10 vector (FLAG and others)) VH: QVQLVESGGGLVQPGRSLRLSCAASGFTFDDYAMHWVRQAPGKGLEWVSGISGSGGSTYYADSVKGRFTISRDNAKNSLYLQMNSLRAEDTALYYCAKDKYPVLDTFDIWGQGTMVTVSS VL: DIQMTQSPASLPTPVGDRVTITCRASQYIQGFLNWYQQKPGKAPKLLIYDASNLETGVPSRFSGSGSGTDFTLTISSLQPEDFATYYCQQSYSTPQTFGQGTKVDIK
5 |  | ≥ 4 | 91 | 165_13_C3 scFv (scFv, V domains shown, VH CDR3 SYQSDEDAFDI; Antibody C3 of the B12 family; not shown: scFv linker, domain order, and the tags of the pSANG10 vector (FLAG and others)) VH: QVQLVESGGGLVQPGRSLRLSCAASGFTFDDYAMHWVRQAPGKGLEWVSGISGSGGSTYYADSVKGRFTISRDNAKNSLYLQMNSLRAEDTALYYCAKSYQSDEDAFDIWGQGTMVTVSS VL: DIQMTQSPASLPTPVGDRVTITCRASQYIQGFLNWYQQKPGKAPKLLIYDASNLETGVPSRFSGSGSGTDFTLTISSLQPEDFATYYCQQSYSTPQTFGQGTKVDIK
6 |  | ≥ 4 | 91 | 165_13_B1 scFv (scFv, V domains shown, VH CDR3 VMSSMEDAFDI; not shown: scFv linker, domain order, and the tags of the pSANG10 vector (FLAG and others)) VH: QVQLVESGGGLVQPGRSLRLSCAASGFTFDDYAMHWVRQAPGKGLEWVSGISGSGGSTYYADSVKGRFTISRDNAKNSLYLQMNSLRAEDTALYYCAKVMSSMEDAFDIWGQGTMVTVSS VL: DIQMTQSPASLPTPVGDRVTITCRASQYIQGFLNWYQQKPGKAPKLLIYDASNLETGVPSRFSGSGSGTDFTLTISSLQPEDFATYYCQQSYSTPQTFGQGTKVDIK
7 |  | ≥ 4 | 91 | 165_13_B6 scFv (scFv, V domains shown, VH CDR3 GQKGEGDTFDI; not shown: scFv linker, domain order, and the tags of the pSANG10 vector (FLAG and others)) VH: QVQLVESGGGLVQPGRSLRLSCAASGFTFDDYAMHWVRQAPGKGLEWVSGISGSGGSTYYADSVKGRFTISRDNAKNSLYLQMNSLRAEDTALYYCAKGQKGEGDTFDIWGQGTMVTVSS VL: DIQMTQSPASLPTPVGDRVTITCRASQYIQGFLNWYQQKPGKAPKLLIYDASNLETGVPSRFSGSGSGTDFTLTISSLQPEDFATYYCQQSYSTPQTFGQGTKVDIK
8 |  | ≥ 4 | 91 | 165_13_B3 scFv (scFv, V domains shown, not shown: small tags and cut ends, VH CDR3 ALARGHDTFDI) VH: QVQLVESGGGLVQPGRSLRLSCAASGFTFDDYAMHWVRQAPGKGLEWVSGISGSGGSTYYADSVKGRFTISRDNAKNSLYLQMNSLRAEDTALYYCAKALARGHDTFDIWGQGTMVTVSS VL: DIQMTQSPASLPTPVGDRVTITCRASQYIQGFLNWYQQKPGKAPKLLIYDASNLETGVPSRFSGSGSGTDFTLTISSLQPEDFATYYCQQSYSTPQTFGQGTKVDIK
9 |  | ≥ 4 | 91 | 165_13_D4 scFv (scFv, V domains shown, VH CDR3 GTVGEGDTFDI; not shown: scFv linker, domain order, and the tags of the pSANG10 vector (FLAG and others)) VH: QVQLVESGGGLVQPGRSLRLSCAASGFTFDDYAMHWVRQAPGKGLEWVSGISGSGGSTYYADSVKGRFTISRDNAKNSLYLQMNSLRAEDTALYYCAKGTVGEGDTFDIWGQGTMVTVSS VL: DIQMTQSPASLPTPVGDRVTITCRASQYIQGFLNWYQQKPGKAPKLLIYDASNLETGVPSRFSGSGSGTDFTLTISSLQPEDFATYYCQQSYSTPQTFGQGTKVDIK
10 |  | ≥ 4 | 91 | 180_11_F5 scFv (scFv, V domains shown, not shown: small tags and cut ends, VH CDR3 VMRTGLDTFDI) VH: QVQLVESGGGLVQPGRSLRLSCAASGFTFDDYAMHWVRQAPGKGLEWVSGISGSGGSTYYADSVKGRFTISRDNAKNSLYLQMNSLRAEDTALYYCAKVMRTGLDTFDIWGQGTMVTVSS VL: DIQMTQSPASLPTPVGDRVTITCRASQYIQGFLNWYQQKPGKAPKLLIYDASNLETGVPSRFSGSGSGTDFTLTISSLQPEDFATYYCQQSYSTPQTFGQGTKVDIK
